Reference: patent US20170224836A1 (Novartis, published 2017)
Changes are numbered by the printed parent chain.

T1: human CDH6 on cells (human, UniProt P55285 54-790)
T1 sequence: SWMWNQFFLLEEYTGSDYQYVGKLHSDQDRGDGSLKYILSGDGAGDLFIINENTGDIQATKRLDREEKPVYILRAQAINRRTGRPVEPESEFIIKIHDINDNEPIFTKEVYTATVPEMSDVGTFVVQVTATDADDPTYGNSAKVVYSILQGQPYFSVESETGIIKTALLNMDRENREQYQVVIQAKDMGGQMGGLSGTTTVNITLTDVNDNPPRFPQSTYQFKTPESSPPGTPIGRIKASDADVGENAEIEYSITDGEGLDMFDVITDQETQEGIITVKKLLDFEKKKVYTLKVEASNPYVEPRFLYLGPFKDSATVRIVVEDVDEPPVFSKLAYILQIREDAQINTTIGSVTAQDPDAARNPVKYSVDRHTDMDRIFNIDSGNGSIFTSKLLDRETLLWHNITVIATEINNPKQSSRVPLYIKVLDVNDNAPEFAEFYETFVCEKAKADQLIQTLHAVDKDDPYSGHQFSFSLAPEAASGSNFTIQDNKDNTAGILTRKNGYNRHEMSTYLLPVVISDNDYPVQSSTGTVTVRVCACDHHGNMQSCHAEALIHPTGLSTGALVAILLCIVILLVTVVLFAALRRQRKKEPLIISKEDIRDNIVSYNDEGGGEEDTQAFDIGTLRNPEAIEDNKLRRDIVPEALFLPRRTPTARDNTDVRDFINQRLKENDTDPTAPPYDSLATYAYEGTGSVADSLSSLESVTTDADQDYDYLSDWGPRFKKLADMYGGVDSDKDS

B1: NOV0670-SMCC-DM1 (antibody, human IgG1, lambda, V domains shown)
VH: QVQLVQSGAEVKKPGSSVKVSCKASGGTFSSYAISWVRQAPGQGLEWMGGIIPIFGTANYAQKFQGRVTITADESTSTAYMELSSLRSEDTAVYYCARKFPGRGPFAYWGQGTLVTVSS
VL: DIVLTQPPSVSGAPGQRVTISCSGSSSNIGSQYVYWYQQLPGTAPKLLIYYNSERPSGMPDRFSGSKSGTSASLAITGLQAEDEADYYCQTWDASSQSFVFGGGTKLTVLG
modifications: SMCC-DM1 on primary amines, sites not stated
B2: NOV0672-SMCC-DM1 (antibody, human IgG1, lambda, V domains shown)
VH: QVQLLESGGGLVQPGGSLRLSCAASGFTFNTYGIHWVRQAPGKGLEWVSYIHYSGSSTYYADSVKGRFTISRDNSKNTLYLQMNSLRAEDTAVYYCARHAYGYMDFWGQGTLVTVSS
VL: DIALTQPASVSGSPGQSITISCTGTSSDVGAYNYVSWYQQHPGKAPKLMIYGVSKRPSGVSNRFSGSKSGNTASLTISGLQAEDEADYYCQSYDHLLHVVFGGGTKLTVLG
modifications: SMCC-DM1 on primary amines, sites not stated
B3: NOV0674-SMCC-DM1 (antibody, human IgG1, lambda, V domains shown)
VH: QVQLLESGGGLVQPGGSLRLSCAASGFTFSSYAMTWVRQAPGKGLEWVSGISGGGSNTYYADSVKGRFTISRDNSKNTLYLQMNSLRAEDTAVYYCARGGGQYFDYWGQGTLVTVSS
VL: DIVLTQPPSVSGAPGQRVTISCSGSSSNIGYNYVSWYQQLPGTAPKLLIYRDNQRPSGVPDRFSGSKSGTSASLAITGLQAEDEADYYCAAWTSGSIGWVFGGGTKLTVLG
modifications: SMCC-DM1 on primary amines, sites not stated
B4: NOV0682-SMCC-DM1 (antibody, human IgG1, kappa, V domains shown)
VH: QVQLVESGGGLVKPGGSLRLSCAASGFTFSSYAISWVRQAPGKGLEWVGFIKSNADGYTTNYAAPVKGRFTISRDDSKNTLYLQMNSLKTEDTAVYYCARIRYFRNWDYWGQGTLVTVSS
VL: DIQMTQSPSSLSASVGDRVTITCRASQTINSYLNWYQQKPGKAPKLLIYRASNLQSGVPSRFSGSGSGTDFTLTISSLQPEDFATYYCQQGDSSWTFGQGTKVEIKR
modifications: SMCC-DM1 on primary amines, sites not stated
B5: NOV0685-SMCC-DM1 (antibody, human IgG1, lambda, V domains shown)
VH: QVQLQQSGPGLVKPSQTLSLTCAISGDSVSGNSAAWNWIRQSPSRGLEWLGIIYYRSKWYNDYAVSVKSRITINPDTSKNQFSLQLNSVTPEDTAVYYCARSSYSGGFDYWGQGTLVTVSS
VL: DIVLTQPPSVSGAPGQRVTISCSGSSSNIGSYYVSWYQQLPGTAPKLLIYYNTKRPSGVPDRFSGSKSGTSASLAITGLQAEDEADYYCQSWDKLGKGYVFGGGTKLTVLG
modifications: SMCC-DM1 on primary amines, sites not stated
B6: NOV0689-SMCC-DM1 (antibody, human IgG1, lambda, V domains shown)
VH: QVQLLESGGGLVQPGGSLRLSCAASGFTFSSFAMNWVRQAPGKGLEWVSVISSSGSNTNYADSVKGRFTISRDNSKNTLYLQMNSLRAEDTAVYYCARPSYFQAMDYWGQGTLVTVSS
VL: DIVLTQPPSVSGAPGQRVTISCSGSSSNIGSNFVSWYQQLPGTAPKLLIYDNSNRPSGVPDRFSGSKSGTSASLAITGLQAEDEADYYCSSYDSFDHSWVFGGGTKLTVLG
modifications: SMCC-DM1 on primary amines, sites not stated
B7: NOV0690-SMCC-DM1 (antibody, human IgG1, lambda, V domains shown)
VH: QVQLLESGGGLVQPGGSLRLSCAASGFTFSDHAIDWVRQAPGKGLEWVSVIAGDGSITYYADSVKGRFTISRDNSKNTLYLQMNSLRAEDTAVYYCARDTGVYREYMDVWGQGTLVTVSS
VL: DIELTQPPSVSVSPGQTASITCSGDAIGTKFAHWYQQKPGQAPVLVIYYDHERPSGIPERFSGSNSGNTATLTISGTQAEDEADYYCYSRASSNLVFGGGTKLTVLG
modifications: SMCC-DM1 on primary amines, sites not stated
B8: NOV0691-SMCC-DM1 (antibody, human IgG1, lambda, V domains shown)
VH: QVQLVESGGGLVKPGGSLRLSCAASGFTFSSYALNWVRQAPGKGLEWVGRIKSKTYGGSTDYAAPVKGRFTISRDDSKNTLYLQMNSLKTEDTAVYYCARDRGGYVGFDSWGQGTLVTVSS
VL: B2 VL with A31R, Y34F, G52R, K55N, Y93W, D94T, H95T, L96Y, L97S, H98N
modifications: SMCC-DM1 on primary amines, sites not stated
B9: NOV0692-SMCC-DM1 (antibody, human IgG1, lambda, V domains shown)
VH: QVQLVESGGGLVKPGGSLRLSCAASGFTFSRYWMDWVRQAPGKGLEWVGRIKSKANGGITDYAAPVKGRFTISRDDSKNTLYLQMNSLKTEDTAVYYCARGMTFLGIWGQGTLVTVSS
VL: DIELTQPPSVSVSPGQTASITCSGDSIGSKYAQWYQQKPGQAPVLVIYYNSERPSGIPERFSGSNSGNTATLTISGTQAEDEADYYCQSWDGQSTIRVFGGGTKLTVLG
modifications: SMCC-DM1 on primary amines, sites not stated
B10: NOV0693-SMCC-DM1 (antibody, human IgG1, kappa, V domains shown)
VH: QVQLLESGGGLVQPGGSLRLSCAASGFTFSSYALHWVRQAPGKGLEWVSYIFYDSSSTYYADSVKGRFTISRDNSKNTLYLQMNSLRAEDTAVYYCARFLYSAYGVANWGQGTLVTVSS
VL: DIQMTQSPSSLSASVGDRVTITCRASQSISFYLAWYQQKPGKAPKLLIYGASTLQSGVPSRFSGSGSGTDFTLTISSLQPEDFATYYCHQYSYWLRTFGQGTKVEIKR
modifications: SMCC-DM1 on primary amines, sites not stated
B11: NOV0695-SMCC-DM1 (antibody, human IgG1, kappa, V domains shown)
VH: QVQLQQSGPGLVKPSQTLSLTCAISGDSVSSNSAAWNWIRQSPSRGLEWLGRIYYRSKWYNDYAVSVKSRITINPDTSKNQFSLQLNSVTPEDTAVYYCARERSYRDYFDYWGQGTLVTVSS
VL: DIQMTQSPSSLSASVGDRVTITCRASQGIFTYLNWYQQKPGKAPKLLISAASTLQSGVPSRFSGSGSGTDFTLTISSLQPEDFATYYCQQYYSTSLTFGQGTKVEIKR
modifications: SMCC-DM1 on primary amines, sites not stated
B12: NOV0705-SMCC-DM1 (antibody, human IgG1, lambda, V domains shown)
VH: QVQLVQSGAEVKKPGESLKISCKGSGYSFTNYWIGWVRQMPGKGLEWMGFIDPGVSYTRYSPSFQGQVTISADKSISTAYLQWSSLKASDTAMYYCARVLAHSTEYNWPAFWGQGTLVTVSS
VL: DIVLTQPPSVSGAPGQRVTISCSGSSSNIGLDYVNWYQQLPGTAPKLLIYRNKQRPSGVPDRFSGSKSGTSASLAITGLQAEDEADYYCQAWAGRTNYVVFGGGTKLTVLG
modifications: SMCC-DM1 on primary amines, sites not stated
B13: NOV0709-SMCC-DM1 (antibody, human IgG1, lambda, V domains shown)
VH: QVQLLESGGGLVQPGGSLRLSCAASGFTFSTYYMHWVRQAPGKGLEWVSVISSDGSFTFYADSVKGRFTISRDNSKNTLYLQMNSLRAEDTAVYYCARHGYGAFDYWGQGTLVTVSS
VL: B2 VL with A31S, G52Y, K55N, Q91A, D94T, L96Q, L97G, H98S, V99W
modifications: SMCC-DM1 on primary amines, sites not stated
B14: NOV0713-SMCC-DM1 (antibody, human IgG1, lambda, V domains shown)
VH: QVQLQQSGPGLVKPSQTLSLTCAISGDSVSSNSAAWNWIRQSPSRGLEWLGRIYYRSKWYNDYAVSVKSRITINPDTSKNQFSLQLNSVTPEDTAVYYCARGLVGRYGQPYHFDVWGQGTLVTVSS
VL: DIELTQPPSVSVSPGQTASITCSGDNLRSYYVHWYQQKPGQAPVLVIYGNNKRPSGIPERFSGSNSGNTATLTISGTQAEDEADYYCGVYTLSSVVFGGGTKLTVLG
modifications: SMCC-DM1 on primary amines, sites not stated

What follows are binders tested against T1, human CDH6 on cells (assay: cell-based or functional assay).

Binder | percent inhibition at 1.22 nM ADC, JHOS4 cells | percent inhibition at 1.22 nM ADC, KNS42 cells | percent inhibition at 1.22 nM ADC, NCIH661 cells | percent inhibition at 1.22 nM ADC, OVCAR3 cells | percent inhibition at 1.22 nM ADC, SNU8 cells
B1 | -27.9% | -18.6% | 5.14% | -30% | -15.6%
B2 | -23% | -12.3% | -6.14% | -16.2% | -10.9%
B3 | -11.9% | -6.82% | 3.9% | -10.3% | -1.42%
B4 | 33.9% | 23.8% | 16.4% | 61.8% | 10.8%
B5 | -14.7% | -14.7% | 2.08% | -20.6% | -0.1%
B6 | 3.63% | -3.11% | -0.53% | 7.21% | 10.3%
B7 | 51% | 56.8% | 14.6% | 84.8% | 18.4%
B8 | -14.4% | -9.23% | -10.5% | -1.5% | -2.56%
B9 | 62.3% | 57.3% | 14.8% | 88% | 15.7%
B10 | 58.1% | 15.2% | 25.9% | 85.7% | 35.6%
B11 | 66.9% | 66.3% | 18.7% | 89% | 21.6%
B12 | 40.4% | -13.3% | -3.15% | 68.6% | 6.4%
B13 | 4.5% | -4.2% | 5.91% | 46.9% | -7.7%
B14 | -6.22% | -17.3% | -9.74% | -3.55% | 7.79%
